Laboratory results: patent US7018836B1, “P-TEFb compositions, methods and screening assays” (priority 1996, dated 2006)

B1: DBS: Drosophila P-TEFb small subunit, HIS-tagged recombinant (protein)
chain: MAHMSHMLQQPSGSTPSNVGSSSSRTMSLMEKQKYIEDYDFPYCDESNKYEKVAKIGQGTFGEVFKAREKKGNKKFVAMKKVLMDNEKEGFPITALREIRILQLLKHENVVNLIEICRTKATATNGYRSTFYLVFDFCEHDLAGLLSNMNVKFSLGEIKKVMQQLLNGLYYIHSNKILHRDMKAANVLITKHGILKLADFGLARAFSIPKNESKNRYTNRVVTLWYRPPELLLGDRNYGPPVDMWGAGCIMAEMWTRSPIMQGNTEQQQLTFISQLCGSFTPDVWPGVEELELYKSIELPKNQKRRVKERLRPYVKDQTGCDLLDKLLTLDPKKRIDADTALNHDFFWTDPMPSDLSKMLSQHLQSMFEYLAQPRRSNQMRNYHQQLTTMNQKPQDNSMIDRVW
modifications: left off: small tags and cut ends
notes: Drosophila P-TEFb small subunit, HIS-tagged recombinant
B2: Tat: 86 residue HIV-1 Tat followed by a streptavidin binding tag at its carboxyl terminus (protein)
chain: MEPVDPRLEPWKHPGSQPKTACTNCYCKKCCFHCQVCFITKALGISYGRKKRRQRRRAHQNSQTHQASLSKQPTSQPRGDPTGPKE
modifications: left off: large carriers

Tests used:
[1] = tested on: transcription in Drosophila extract depleted of P-TEFb; assay: Transcription activity of recombinant protein added into Drosophila extract depleted of P-TEFb (Table 1); assay type: biochemical
RNA polymerase II = assay: Kinase assay of recombinant P-TEFb subunits with RNA polymerase II as substrate (Table 1); assay type: biochemical, Drosophila; conditions: RNA polymerase II as substrate
Method: 0.4 μl of purified RNA polymerase II and various protein samples were mixed in 18 μl of 55 mM HMK. The reaction was then initiated by the addition of 2 μl of a solution containing 2 μCi of [γ-^32P]ATP (ICN) and unlabeled ATP at 10 μM, or only unlabeled ATP at concentrations from 1 to 100 μM or other NTPs or dNTPs at concentrations of 1 to 100 μM. Reactions were incubated for the indicated times at 23° C. and then terminated with SDS loading buffer. Samples were analyzed on a 6–15% SDS polyacrylamide gel which was silver stained, dried and subjected to autoradiography if the assay contained label.
Using the CTD Kinase assay, as previously described in Example 2, Section A.7, both HBL1-1 (SEQ ID NO:45), HBL2(SEQ ID NO:47) and HBL3 (SEQ ID NO:50) were substituted for the large subunit in the Drosophila transcription system. Alone “PITARLE” has little kinase activity and no detectable activity in transcription.

[2] = tested on: transcription from HIV-1 LTR; assay: In vitro Tat transactivation in HNE with TAR and DTAR templates (FIG. 8); assay type: biochemical, human
Method: The transcription template (Nco I-digested pLTR-4/CAT vector containing the HIV-1 LTR from −153 to +80) was used in a pulse-chase transcription experiment. Reactions (12 μl total; 20 mM HEPES, pH 7.6, 7 mM MgCl2, 20 μg/ml DNA template, 3 μl HNE, 64 mM KCl, with 50 μM DRB or 0.3 μl Drosophila P-TEFb (Marshall et al., 1996) as indicated) were pre-incubated for 20 minutes at 30° C., pulsed for 2 minutes by adding ATP, GTP, UTP to 600 μM each and 5 μCi [α-^32P]CTP (˜0.1 mM), and chased for 5 minutes by adding CTP to 1.2 mM. Reactions were stopped, phenol extracted and analyzed on a 6% polyacrylamide gel as described (Marshall and Price, 1995). pLTR-TAR-Luc and pLTR-DTAR-Luc plasmids were digested with Eco RI to generate TAR and DTAR template that were used in the studies. The TAR template contains HIV-1 LTR from −475 to +76, while the DTAR template contains HIV-1 LTR from −475 to +19. Transcription with TAR and DTAR templates generates runoffs of 694 and 646 nucleotides, respectively. The transcription reaction mix contained 20 mM HEPES (pH7.6), 7 mM MgCl2, 60 mM KCl, 0.5 μl HNE (or depHNE as indicated), 20 μg/ml TAR template (or DTAR template as indicated), indicated amount of HIV-1 Tat (86 residue HIV-1 Tat followed by a streptavidin binding tag at its carboxyl terminus) and DRB. The reaction mix was pre-incubated for 15 minutes at 30° C. and the transcription was started by adding nucleotides to final concentrations of 50 μM ATP, 50 μM GTP, 50 μM UTP, 10 μM CTP, and 5 μCi [α-^32P]CTP (˜0.1 mM), and continuously labeled for 20 minutes, or by adding nucleotides to final concentrations of 50 μM ATP, 50 μM GTP, 50 μM UTP, and 5 μCi [α-^32P]CTP (˜0.1 mM), and pulsed for 2 minutes. The reactions were stopped and reaction mix were phenol-extracted. The transcripts were then analyzed on a 6% polyacrylamide gel as described (Marshall and Price, 1995).

Row | Molecule | Transcription activity [1] | Kinase activity (RNA polymerase II) | stimulation of generation of runoff ([2]; HNE not depleted, TAR template, continuous labeling, 10 ng/μl Tat) | increase of runoff in presence of 50 μM DRB, DTAR template or absence of human P-TEFb ([2]; continuous labeling) | increase of transcription initiation (short pulsed transcripts) ([2]; pulse-only protocol, 10 ng/μl Tat)
1 | B1 | none | very little | – | – | –
2 | B2 | – | – | about 12 fold | about two | about two
